Source: paper PMC3212559, “Large-Scale Protein-Protein Interaction Analysis in Arabidopsis Mesophyll Protoplasts by Split Firefly Luciferase Complementation” (PLoS ONE, 2011)

Key:
Experiment in all cases: split reporter (BiFC, NanoBiT); SFLC in living Arabidopsis mesophyll protoplasts: Aux/IAA-FLucN or MYB30-FLucN co-expressed with ARFCTD-FLucC or Aux/IAA-FLucC for 6 hr; 10 µg of each construct, 2×10^4 cells, 96-well plate, D-luciferin; relative activity standardised against ARF5CTD-FLucC + IAA28-FLucN
Details in all cases: partners not purified
[1] = molecular target: T1, C-terminal domain (CTD) of ARF5-FLucC (Arabidopsis, UniProt P93024 793-902)
T1 construct: In the ARF-ARF tests the same CTD stood both as ARFCTD-FLucC and as ARFCTD-FLucN; one molecule for both; also called ARF5CTD-FLucC; auxin response factor 5; source: Arabidopsis mesophyll protoplasts, transfected, in living cells (SFLC) and in lysate (co-IP); not shown: FLucC (firefly luciferase aa 394-550)
T1 sequence (looked up): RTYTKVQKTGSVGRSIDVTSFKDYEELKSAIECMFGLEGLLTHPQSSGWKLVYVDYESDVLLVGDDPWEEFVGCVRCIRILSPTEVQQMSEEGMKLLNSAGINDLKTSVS

[2] = molecular target: T2, IAA12-FLucC (Arabidopsis, UniProt Q38830 1-239)
T2 construct: Arabidopsis Aux/IAA protein IAA12; also called Aux/IAA-FLucC; source: Arabidopsis mesophyll protoplasts, transfected, in living cells; not shown: FLucC (firefly luciferase aa 394-550)
T2 sequence (looked up): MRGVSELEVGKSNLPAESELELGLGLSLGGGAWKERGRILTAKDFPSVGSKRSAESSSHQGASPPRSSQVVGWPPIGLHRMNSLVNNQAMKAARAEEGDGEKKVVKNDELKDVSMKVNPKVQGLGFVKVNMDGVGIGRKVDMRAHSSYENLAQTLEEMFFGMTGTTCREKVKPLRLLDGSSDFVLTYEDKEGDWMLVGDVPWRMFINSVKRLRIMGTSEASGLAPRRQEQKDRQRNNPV

[3] = molecular target: T3, IAA6-FLucC (Arabidopsis, UniProt Q38824 1-189)
T3 construct: Arabidopsis Aux/IAA protein IAA6; also called Aux/IAA-FLucC; source: Arabidopsis mesophyll protoplasts, transfected, in living cells; not shown: FLucC (firefly luciferase aa 394-550)
T3 sequence (looked up): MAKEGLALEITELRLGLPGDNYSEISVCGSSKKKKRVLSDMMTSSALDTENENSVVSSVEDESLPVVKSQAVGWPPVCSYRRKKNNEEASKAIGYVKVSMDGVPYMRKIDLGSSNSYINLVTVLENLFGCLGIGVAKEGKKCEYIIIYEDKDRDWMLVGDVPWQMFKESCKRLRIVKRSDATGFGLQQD

Measured: relative luciferase activity (standardised against ARF5CTD-FLucC + IAA28-FLucN)

B1: MYB30-FLucN (natural protein, UniProt Q9SCU7 1-323, looked up)
chain: MVRPPCCDKGGVKKGPWTPEEDIILVTYIQEHGPGNWRAVPTNTGLLRCSKSCRLRWTNYLRPGIKRGNFTEHEEKMIVHLQALLGNRWAAIASYLPQRTDNDIKNYWNTHLKKKLNKVNQDSHQELDRSSLSSSPSSSSANSNSNISRGQWERRLQTDIHLAKKALSEALSPAVAPIITSTVTTTSSSAESRRSTSSASGFLRTQETSTTYASSTENIAKLLKGWVKNSPKTQNSADQIASTEVKEVIKSDDGKECAGAFQSFSEFDHSYQQAGVSPDHETKPDITGCCSNQSQWSLFEKWLFEDSGGQIGDILLDENTNFF
notes: transcription factor MYB30, the unrelated protein used as negative control; source: Arabidopsis mesophyll protoplasts, transfected, in living cells; not shown: FLucN (firefly luciferase aa 1-398)
< 0.1: [1] | [2] | [3]
